Measured values reported in the supplement of paper PMC7877785.
± gives the uncertainty stated by the source.

Experiment: self-splicing fitness, log relative to wild type (ln ratio); higher = more splicing; Tetrahymena group I intron in knt gene, E. coli kanamycin selection, DiMSum; sequences stand for … in CUCUCU…GGAGGGAAAAGUUAUCAGGCAUGCACCUGGUAGCUAGUCUUUAAACCAAUAGAUUGCAUCGGUUUAAAAGGCAAGACCGUCAAAUUGCGGGAAAGGGGUCAACAGCCGUUCAGUACCAAGUCUCAGGGGAAACUUUGAGAUGGCCUUGCAAAGGGUAUGGUAAUAAGCUGACGGACAUGGUCCUAACCACGCAGCCAAGUCCUAAGUCAACAGAUCUUCUGUUGAUAUGGAUGCAGUUCACAGACUAAAUGUCGGUCGGGGAAGAUGUAUUCUUCUCAUAAGAUAUAGUCGGACCUCUCCUUAAUGGGAGCUAGCGGAUGAAGUGAUGCAACACUGGAGCCGCUGGGAACUAAUUUGUAUGCGAAAGUAUAUUGAUUAGUUUUGGAGUACUCGUGGUCG
Method in brief: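 Colonies from six replicate transformations of E. coli BL21(DE3) were pooled and amplicon-sequenced on an Illumina HiSeq 2500. The library placed an intron with all eight P1ex-region nucleotides randomised inside the knt kanamycin-resistance gene on pET-22b(+), and cells grew overnight at 37°C or 30°C on LB agar with or without 25 μg/mL kanamycin (plus 100 μg/mL carbenicillin, 50 μM IPTG, 0.2% rhamnose). Fitness is the DiMSum error-weighted combination of wild-type-normalised replicate fold changes, kanamycin versus none.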

Sequence	self-splicing fitness (ln) (30 °C)	self-splicing fitness (ln) (37 °C)
CCACAGCAAUAUUACGGCAC	-4.06 ± 0.21	-2.87 ± 0.22
CCACAGCAAUAUUACGUAAC	-3.47 ± 0.2	-1.35 ± 0.16
CCACAGCAAUAUUACGUCAA	-2.92 ± 0.15	-2.22 ± 0.21
CCACAGCAAUAUUACGUCUA	-3.53 ± 0.24	-2.43 ± 0.17
CCACAGCAAUAUUACGUGCG	-2.79 ± 0.11	-1.72 ± 0.12
CCAGAGCAAUAUUACGCACC		-2.37 ± 0.34
CCAGAGCAAUAUUACGCAGC	-3.64 ± 0.28	-1.77 ± 0.24
CCAGAGCAAUAUUACGCGGC	-3.88 ± 0.39	-2.96 ± 0.24
CCAGAGCAAUAUUACGCUGU	-3.95 ± 0.44	
CCAGAGCAAUAUUACGGAAG	-2.32 ± 0.13	-2.1 ± 0.19
CCAGAGCAAUAUUACGGCAC	-3.21 ± 0.32	-2.73 ± 0.27
CCAGAGCAAUAUUACGGUAG	-2.14 ± 0.11	-2.34 ± 0.2
CCAGAGCAAUAUUACGGUAU	-3.47 ± 0.2	-2.75 ± 0.26
CCAGAGCAAUAUUACGGUCC	-3.93 ± 0.33	-1.51 ± 0.34
CCAGAGCAAUAUUACGUAGU	-4.61 ± 0.22	-2.87 ± 0.21
CCAGAGCAAUAUUACGUCAA	-4.08 ± 0.39	-2.3 ± 0.35
CCAGAGCAAUAUUACGUCCU	-4.05 ± 0.22	-2.48 ± 0.25
CCAGAGCAAUAUUACGUCGU	-3.93 ± 0.24	-2.19 ± 0.21
CCAGAGCAAUAUUACGUGGC	-1.95 ± 0.18	-3.77 ± 0.39
CCAGAGCAAUAUUACGUUAA	-4.07 ± 0.37	-2.91 ± 0.29
CCAUAGCAAUAUUACGAAGU	-3.61 ± 0.21	-2.64 ± 0.22
CCAUAGCAAUAUUACGAAUC	-3.22 ± 0.14	-1.38 ± 0.17
CCAUAGCAAUAUUACGACCA	-2.52 ± 0.46	
CCAUAGCAAUAUUACGACCU	-2.92 ± 0.33	-1.28 ± 0.41

Sequence	self-splicing fitness (ln) (30 °C)	self-splicing fitness (ln) (37 °C)
CCAUAGCAAUAUUACGACGA	-3.14 ± 0.21	-1.42 ± 0.14
CCAUAGCAAUAUUACGACGC	-2.27 ± 0.26	-2.51 ± 0.39
CCAUAGCAAUAUUACGAGAC	-3.58 ± 0.3	-0.492 ± 0.17
CCAUAGCAAUAUUACGAGAG	-3.57 ± 0.16	-2.56 ± 0.14
CCAUAGCAAUAUUACGAGCG	-0.63 ± 0.095	-2.73e-06 ± 0.12
CCAUAGCAAUAUUACGAUCG	-0.244 ± 0.053	0.361 ± 0.081
CCAUAGCAAUAUUACGCAAU	-3.67 ± 0.15	-2.64 ± 0.15
CCAUAGCAAUAUUACGCAGU	-2.94 ± 0.14	-3.37 ± 0.42
CCAUAGCAAUAUUACGCCCG	-0.369 ± 0.16	0.418 ± 0.21
CCAUAGCAAUAUUACGCGAC	-3.56 ± 0.13	-2.9 ± 0.18
CCAUAGCAAUAUUACGCUCU	-4.23 ± 0.3	-2.85 ± 0.24
CCAUAGCAAUAUUACGGAAG	-3.19 ± 0.16	-1.67 ± 0.14
CCAUAGCAAUAUUACGGACA	-3.36 ± 0.23	-1.14 ± 0.16
CCAUAGCAAUAUUACGGAGU	-4 ± 0.29	-2.42 ± 0.17
CCAUAGCAAUAUUACGGGGA	-2.97 ± 0.18	-2.68 ± 0.22
CCAUAGCAAUAUUACGGGUC	-3.41 ± 0.35	-2.23 ± 0.23
CCAUAGCAAUAUUACGGUAC	-3.2 ± 0.19	-3.05 ± 0.27
CCAUAGCAAUAUUACGGUGU	-4.24 ± 0.17	-2.58 ± 0.15
CCAUAGCAAUAUUACGGUUU	-4.54 ± 0.25	-2.79 ± 0.21
CCAUAGCAAUAUUACGUAUA	-3.89 ± 0.3	-1.46 ± 0.17
CCAUAGCAAUAUUACGUCAA	-4.82 ± 0.41	-0.857 ± 0.17
CCAUAGCAAUAUUACGUCGC	-3.46 ± 0.22	-3.74 ± 0.31
CCAUAGCAAUAUUACGUGAC	-2.57 ± 0.13	-2.79 ± 0.3
CCAUAGCAAUAUUACGUGCC		-2.41 ± 0.41

Sequence	self-splicing fitness (ln) (30 °C)	self-splicing fitness (ln) (37 °C)
CCAUAGCAAUAUUACGUUAC	-2.14 ± 0.17	-3.54 ± 0.47
CCAUAGCAAUAUUACGUUGC	-4.15 ± 0.22	-2.52 ± 0.23
CCCAAGCAAUAUUACGAGAA	-3.57 ± 0.33	-2.87 ± 0.28
CCCAAGCAAUAUUACGAGUA	-4.12 ± 0.18	-2.5 ± 0.14
CCCAAGCAAUAUUACGAUCU	-2.73 ± 0.14	-3.53 ± 0.27
CCCAAGCAAUAUUACGCAGG	-2.94 ± 0.2	-2.7 ± 0.48
CCCAAGCAAUAUUACGCCGC	-2.08 ± 0.37	-1.07 ± 0.4
CCCAAGCAAUAUUACGCGUA	-3.43 ± 0.2	-1.29 ± 0.17
CCCAAGCAAUAUUACGGUCU	-4.2 ± 0.2	-2.64 ± 0.14
CCCAAGCAAUAUUACGUAAA	-4.05 ± 0.33	-3.46 ± 0.39
CCCAAGCAAUAUUACGUAUA	-2.91 ± 0.23	-3.24 ± 0.23
CCCAAGCAAUAUUACGUAUG	-4.01 ± 0.15	-1.47 ± 0.11
CCCAAGCAAUAUUACGUGCA	-3.83 ± 0.23	-2.57 ± 0.16
CCCAAGCAAUAUUACGUGUG	-2.98 ± 0.071	-3.12 ± 0.094
CCCAAGCAAUAUUACGUUAU	-4.09 ± 0.2	-2.96 ± 0.19
CCCCAGCAAUAUUACGAAAG	-4.79 ± 0.23	-1.93 ± 0.12
CCCCAGCAAUAUUACGAAUC	-3.68 ± 0.16	-2.49 ± 0.22
CCCCAGCAAUAUUACGACAA		-2.78 ± 0.28
CCCCAGCAAUAUUACGACUG	-3.32 ± 0.11	-2.97 ± 0.17
CCCCAGCAAUAUUACGAGGG	-3.83 ± 0.15	-2.78 ± 0.18
CCCCAGCAAUAUUACGAGGU	-3.6 ± 0.12	-2.23 ± 0.12
CCCCAGCAAUAUUACGAGUA	-2.91 ± 0.12	-2.58 ± 0.14
CCCCAGCAAUAUUACGAUCA	-1.97 ± 0.12	-2.68 ± 0.23
CCCCAGCAAUAUUACGAUGU	-4.53 ± 0.2	-3.11 ± 0.17

Sequence	self-splicing fitness (ln) (30 °C)	self-splicing fitness (ln) (37 °C)
CCCCAGCAAUAUUACGCACC	-2.46 ± 0.18	-2.32 ± 0.24
CCCCAGCAAUAUUACGCAGC	-3.44 ± 0.15	-2.84 ± 0.21
CCCCAGCAAUAUUACGCCGC	-2.93 ± 0.31	-2.26 ± 0.42
CCCCAGCAAUAUUACGCCGU	-3.04 ± 0.16	-2.23 ± 0.21
CCCCAGCAAUAUUACGCCUA	-2.61 ± 0.18	-2.89 ± 0.32
CCCCAGCAAUAUUACGCCUC	-3.25 ± 0.21	-1.6 ± 0.21
CCCCAGCAAUAUUACGCGAU	-4.32 ± 0.25	-2.36 ± 0.28
CCCCAGCAAUAUUACGCGGU	-3.91 ± 0.13	-2.17 ± 0.15
CCCCAGCAAUAUUACGCUCA	-3.21 ± 0.24	-0.421 ± 0.17
CCCCAGCAAUAUUACGCUCC	-3.09 ± 0.36	-2.91 ± 0.47
CCCCAGCAAUAUUACGGGAG	-3.08 ± 0.17	-2.61 ± 0.18
CCCCAGCAAUAUUACGGGGA	-3.15 ± 0.14	-3 ± 0.15
CCCCAGCAAUAUUACGGUAA	-3.78 ± 0.15	-2.78 ± 0.16
CCCCAGCAAUAUUACGGUUA	-3.5 ± 0.17	-2.61 ± 0.13
CCCCAGCAAUAUUACGUACU	-3.21 ± 0.22	-2.67 ± 0.27
CCCCAGCAAUAUUACGUCGG	-3.66 ± 0.16	-2.86 ± 0.33
CCCCAGCAAUAUUACGUGAG	-1.84 ± 0.07	-1.33 ± 0.084
CCCCAGCAAUAUUACGUGCA	-4.13 ± 0.18	-2.17 ± 0.14
CCCCAGCAAUAUUACGUGCG	-3.1 ± 0.099	-2.58 ± 0.14
CCCCAGCAAUAUUACGUGUU	-3.79 ± 0.12	-3.3 ± 0.17
CCCCAGCAAUAUUACGUUUU	-4.12 ± 0.14	-2.55 ± 0.11
CCCGAGCAAUAUUACGAAUG	-2.61 ± 0.18	-1.41 ± 0.22
CCCGAGCAAUAUUACGAGGG	-4.84 ± 0.36	-2.58 ± 0.22
CCCGAGCAAUAUUACGAGUG	-3.04 ± 0.17	-1.99 ± 0.13
